PMC5095144, “Purification and characterization of an extracellular β‐glucosidase from Sporothrix schenckii” (FEBS Open Bio, 2016)
Each block holds one molecule with its values, some of them ahead of it.

Columns and labels:
[1] = target: extracellular β-glucosidase from Sporothrix schenckii (Sporothrix schenckii); test: zymogram after SDS/PAGE (semidenaturing) and native PAGE; 7% gels run at 4 °C, sample incubated 30 min at 37 °C in sample buffer; activity shown with 4-MUG; CFCF after 3 days on cellulose
[2] = target: extracellular β-glucosidase from Sporothrix schenckii (Sporothrix schenckii); test: SEC; Sephacryl S200-HR column (1 x 119 cm), 50 mM phosphate buffer pH 7, 4 °C, calibrated with standard proteins; native mass compared with the subunit mass from 7% SDS/PAGE
[3] = system: T1, extracellular β-glucosidase; test: fluorometric 4-MU release, Michaelis-Menten nonlinear regression; type: biochemical, Sporothrix schenckii; conditions: 100 mM sodium citrate pH 5, 45 °C; substrate 0–15 μM
T1 construct: gene beta-D-glucoside glucohydrolase; native, secreted, purified from culture filtrate of cellulose-grown mycelial form

[4] = system: T1, extracellular β-glucosidase; test: p-nitrophenol release at […] nm, Michaelis-Menten nonlinear regression; type: biochemical, Sporothrix schenckii; conditions: 100 mM sodium citrate pH 5, 45 °C; substrate 0–17.5 mM (below the fitted Km)

stoichiometry N [1]: 2
stoichiometry N [2]: 2
Molecule: extracellular β-glucosidase from Sporothrix schenckii (enzyme)

Molecule: Cc1cc(=O)oc2cc(O[C@@H]3O[C@H](CO)[C@@H](O)[C@H](O)[C@H]3O)ccc12 [4-methylumbelliferyl β-D-glucopyranoside]
Km [3]: 0.012 ± 0.001 mM

Molecule: O=[N+]([O-])c1ccc(O[C@@H]2O[C@H](CO)[C@@H](O)[C@H](O)[C@H]2O)cc1 [p-nitrophenyl β-D-glucopyranoside]
Km [4]: 44.1 ± 6.11 mM
